Reference: publication PMC7746762

Molecular target: FliC-NikRC flagellin variant (flagellin with its D3 domain replaced by the C-terminal Ni-binding domain of NikR) (S. typhimurium | E. coli) (UniProt P0A6Z6)
Assay: dynamic light scattering; purified FliC-NikRC in solution; conditions not shown (Fig. S1 in the SI)

FliC-NikRC flagellin variant (flagellin with its D3 domain replaced by the C-terminal Ni-binding domain of NikR) (from UniProt P0A6Z6 50-133)
stoichiometry N: 4
